Laboratory results published in paper PMC6395706, “Unique properties of PTEN-L contribute to neuroprotection in response to ischemic-like stress” (Scientific Reports, 2019).
Each block holds one molecule with its values, some of them ahead of it.

Key:
[1] = target: endogenous PTEN-L (mouse (endogenous in primary cortical neurons)); experiment: proximity ligation; Duolink PLA with anti-GAB2 and anti-PTEN-L antibodies in fixed, permeabilised primary neurons at DIV 9 treated with 50 µM glutamate for 60 min; proximities below 40 nm
PTEN-L:EGFP = target: T1, PTEN-L:EGFP (human, UniProt P60484-2 1-576); experiment: as above; conditions: partners not purified
T1 construct: human PTEN-L (PTENα), the long translational variant of PTEN with 173 additional N-terminal residues (aa 1-173 unique, aa 174-576 shared with PTEN); gene synthesis with an ATG start codon replacing the alternative CTG start; PCR primers run from the start codon to the last codon before the spacer; A Gly-Gly-Thr-Gly-Gly spacer precedes the C-terminal EGFP; Cloned in the lentiviral transfer vector …

fold decrease of PLA interaction complexes, glutamate against PBS [1]: 3.98 fold
Molecule: GRB2-associated-binding protein 2 (from UniProt Q9Z1S8 1-665) (natural protein)

fold decrease of PLA interaction complexes, glutamate against PBS (PTEN-L:EGFP): 4.61 fold
B1: GRB2-associated-binding protein 2 (natural protein, UniProt Q9Z1S8 1-665, looked up)
chain: MSGGGGDDVVCTGWLRKSPPEKKLRRYAWKKRWFILRSGRMSGDPDVLEYYKNEHSKKPLRIINLNLCEQVDAGLTFNKKELQDSFVFDIKTSERTFYLVAETEADMNKWVQSICQICGFNQAEESTDSLRNLSSASHGPRSSPAEFSSSQHLLRERKSSAPSHSSQPTLFTFEPPVSSHMQPTLSTSAPQEYLYLHQCISRRTENARSASFSQGTRQKSDTAVQKLAQSNGHCINGVGGQVHGFYSLPKPSRHNTEFKDSTYDLPRSLASHGHTKSSLTGSETDNEDVYTFKMPSNTLCRELGDLLVDNMDVPTTPLSAYQIPRTFTLDKNHNAMTVATPGDSAIAPPPRPPKPSQAETSQWGSIQQRPPISENSRSVAATIPRRNTLPAMDNSRLHRASSCETYEYPARGSGESASWSAEPPGKTAVGRSNSASSDDNYVPMNPGSSTLLAMERPGDNSQSVYIPMSPGPHHFDPLGYPSTALPIHRGPSRGSEIQPPPVNRNLKPDRKAKPTPLDLRNNTVIDELPFKSPVTKSWSRINHTFNSSSSQYCRPISTQSITSTDSGDSEENYVPMQNPVSASPVPSGTNSPAPKKSTGSVDYLALDFQPGSPSPHRKPSTSSVTSDEKVDYVQVDKEKTQALQNTMQEWTDVRQSSEPSKGAKL
notes: also called Gab2; GAB2; source: endogenous, mouse primary cortical neurons; in cytosolic or nuclear fractions, or in fixed cells
